CN106866820A (AB-MAT MEDICINE TECH (SHANGHAI) CO LTD, dated 2017)

Columns and labels:
[1] = biological target: T1, 人角蛋白18(CK18), on PC9 human lung cancer cells (human, UniProt P05783 2-430); test: immunofluorescence on PFA-fixed non-permeabilised PC9 cells, antibody 1:1000, FITC goat anti-mouse secondary
T1 construct: whole, on cells; Endogenous CK18 on non-permeabilised PFA-fixed PC9 cells (IF) or live PC-9 cells (capture); also called human keratin 18; cytokeratin 18
T1 sequence (looked up): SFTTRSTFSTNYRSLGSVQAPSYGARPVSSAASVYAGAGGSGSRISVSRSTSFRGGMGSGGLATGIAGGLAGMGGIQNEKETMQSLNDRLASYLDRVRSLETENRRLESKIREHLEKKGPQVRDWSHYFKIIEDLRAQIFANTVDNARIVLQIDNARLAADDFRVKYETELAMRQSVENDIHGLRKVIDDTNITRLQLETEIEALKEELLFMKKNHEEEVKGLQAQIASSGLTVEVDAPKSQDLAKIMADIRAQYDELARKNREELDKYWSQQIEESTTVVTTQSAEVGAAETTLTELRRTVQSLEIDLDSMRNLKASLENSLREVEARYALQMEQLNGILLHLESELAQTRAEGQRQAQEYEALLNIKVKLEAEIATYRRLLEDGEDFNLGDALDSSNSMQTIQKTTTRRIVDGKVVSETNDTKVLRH

[2] = biological target: T2, 人角蛋白18(CK18), endogenous protein in PC9 cell lysate / membrane protein extract (human, UniProt P05783 2-430); test: Western blot on PC9 whole-cell lysate, antibody diluted 1:1000 and 1:2000
T2 construct: Endogenous protein in lysate or extract; also called 48KD条带
T2 sequence (looked up): T1 sequence (looked up)

binding result [1]: binds | binding result [2]: binds
B1: anti-CK18(克隆号1P1)抗体 (antibody, V domains shown)
VH: EVQLQESGPSLVKPSQTLSLTCSVTGDSFTSGYWNWIRKFPGNKLEYMGYISYSGNCYYNPSLKSRISITRDTSKNQYYLQMNSVTTEDTATYFCARASAYYYGSFYDYAMDYWGQGTSVTVSS
VL: DIVMTQSQKFMSTSVGDRVSITCKASQNVDTAVAWYQQKPGQSPKLLIYSASNRFPGVPDRFTGSGSGTDFTLTISNMQSEDLADYFCQQYSSYPFTFGSGTKLEIK
notes: also called anti-CK18 (clone 1P1); 克隆号1P1 anti-CK18抗体
